# Test results published in patent US20190328766, “COMPOSITIONS AND METHODS FOR SUPPRESSING MSUT2” (United States Government As Represented By The Department …, published 2019).
# T1: PABPN1 (Homo sapiens, UniProt Q86U42 Q86U42:1-306)
# T1 sequence: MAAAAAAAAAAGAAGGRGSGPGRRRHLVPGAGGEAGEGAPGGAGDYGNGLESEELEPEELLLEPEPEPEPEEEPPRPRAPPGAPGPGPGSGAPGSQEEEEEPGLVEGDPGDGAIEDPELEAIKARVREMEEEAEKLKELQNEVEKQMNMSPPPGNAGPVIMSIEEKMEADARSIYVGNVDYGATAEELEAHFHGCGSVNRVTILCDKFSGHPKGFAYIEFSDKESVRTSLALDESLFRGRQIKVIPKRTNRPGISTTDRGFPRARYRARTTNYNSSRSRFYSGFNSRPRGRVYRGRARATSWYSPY
# T2: MSUT2 (ZC3H14) CCCH zinc finger domain (Homo sapiens, UniProt Q6PJT7 Q6PJT7:595-719)
# T2 chain: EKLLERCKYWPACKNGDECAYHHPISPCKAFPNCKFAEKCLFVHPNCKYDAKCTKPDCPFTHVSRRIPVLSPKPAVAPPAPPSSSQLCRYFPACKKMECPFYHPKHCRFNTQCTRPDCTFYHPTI
# T3: GST-MSUT2 (UniProt Q6PJT7 Q6PJT7:595-719)
# T3 sequence: T2 chain
# How the values were obtained:
# [1] = molecular target: T1, PABPN1; test: SPR; Biacore T200, biotin capture, from kinetics at 0.6-1 uM protein; settings: tags: GST fusion (pGEX6P-1), E. coli BL21(DE3), benzonase treated; label: 5' BiotinTEG
# Protocol: (§1) SPR experiments were conducted on a Biacore T200 using the Biotin Capture Kit Series S following the manufacturer's instructions (GE). Biotin capture reagent was applied to the sensor chip at a flow rate of 2 μl/minute for 300 seconds. 1 nM biotinylated RNA (BiotinTEG-[…]; SEQ ID NO: 25) was captured at a flow rate of 10 μl/minute for 180 seconds. Samples were flowed across the sensor chip at 50 μl/minute for 120 seconds and the chip was regenerated for 120 seconds at a flow rate of 10 μl/minute.
# [2] = molecular target: T2, MSUT2 (ZC3H14) CCCH zinc finger domain; test: as above; settings: tags: GST fusion (pGEX6P-1), E. coli BL21(DE3), benzonase treated; label: 5' BiotinTEG
# Protocol: as §1
# [3] = molecular target: T3, GST-MSUT2; test: FP; dose-dependent polarization increase; settings: tags: GST fusion; label: fluorescein (FAM)
# [4] = molecular target: T3, GST-MSUT2; test: AlphaScreen; 25 mM HEPES, 100 mM NaCl, 0.04% casein, 0.2% Triton X-100, pH 7.4, room temp; inhibited by ebselen; settings: tags: GST fusion; label: 5' TEG-Biotin (IDT)
# Protocol: The steps and set up for performing the ALPHA assay for MSUT2 binding to polyA are as follows: [0229] 1. Dilutions are in assay buffer (1×PAMA final concentration). [0230] 2. Scale is for 96 well assay in PE […] ½ area plate (total volume/well is 50 μL). [0231] 3. Assays set up in low light conditions [0232] 4. Add 20 μL of diluted donor bead (10 ug/mL) to well bringing well volume to 20 μL [0233] 5. Add 10 μL diluted biotin RNA (15 nM)) bringing well volume to 30 μL [0234] 6. Add 10 μL diluted GST-MSUT2 Protein (125 nM)) bringing well volume to 40 μL [0235] 7. Incubate at room temp for 30 minutes in the dark [0236] 8. […] 9. Incubate at room temp for 60 minutes in the dark [0238] 10. Read Plate using standard AlphaAssay settings on Perkin Elmer EnSpire® Alpha microplate reader
binder,measurement,setting,value
AAAAAAAAAAAAAAA (ssRNA) [biotin-poly(A)15],Kd,[1],237 nM
same,Kd,[2],60 nM
AAAAAAAAAAAAAAA (ssRNA) [FAM-PolyA15],binding result,[3],binds
AAAAAAAAAAAAAAAAAAAA (ssRNA) [biotin-poly(A)20],binding result,[4],binds
